Patent US20130224145A1

Biological target: Fas on the cell surface of human Jurkat T cell line (human) (UniProt P25445)
Experiment: cell-based or functional assay

Chain of UniProt P25445 (P25445 26-335): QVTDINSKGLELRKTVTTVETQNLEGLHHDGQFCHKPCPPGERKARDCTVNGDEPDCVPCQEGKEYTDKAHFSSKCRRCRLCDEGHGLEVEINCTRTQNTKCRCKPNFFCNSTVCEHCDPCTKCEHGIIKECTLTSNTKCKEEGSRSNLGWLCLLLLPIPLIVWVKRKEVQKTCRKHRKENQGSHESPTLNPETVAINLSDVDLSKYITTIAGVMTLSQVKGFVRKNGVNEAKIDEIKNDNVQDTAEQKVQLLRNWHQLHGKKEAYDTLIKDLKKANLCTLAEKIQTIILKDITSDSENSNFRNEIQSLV

**Q.** For “streptavidin-FasL fusion protein (SAFasL) (from UniProt P48023 103-281) (ligand)”, which cytotoxicity relative to the anti-Fas antibody is on record?
**A.** 3 times

**Q.** What about the dead cells (Propidium Iodide staining of Jurkat T cells after 24 hr) of the same substance?
**A.** 87%
